Tested on: Escherichia coli TOP10
Assay: shrunken log2 fold change of peptide-encoding DNA abundance (4.5 h post-induction vs induction); higher = less antimicrobial activity (less host growth inhibition)
Settings: time post-induction: 4.5 h; library: site-saturation at positions 5, 18, 19, 20
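Note: peptides expressed intracellularly from a pBAD plasmid library in pooled LB shake-flask culture, induced with 0.3% L-arabinose, DNA abundance read by NGS, three biological replicates, DESeq2 with apeglm shrinkage.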

Going from RRIRFRPPRLPRPRPRPTCKPRP to RRIRFRPPRLPRPRPRPTDIPRP, the “shrunken log2 fold change” value rises from -0.295 to 0.0284.

RRIRFRPPRLPRPRPRPTDVPRP and RRIRFRPPRLPRPRPRPTEDPRP are within 0.2 log units of each other in “shrunken log2 fold change” value: 0.0385 for the first, 0.0193 for the second.

RRIRFRPPRLPRPRPRPTEQPRP and RRIRFRPPRLPRPRPRPTFCPRP are within 0.2 log units of each other in “shrunken log2 fold change” value: -0.0361 for the first, -0.152 for the second.

Compared with RRIRFRPPRLPRPRPRPTHAPRP, RRIRFRPPRLPRPRPRPTICPRP is lower in “shrunken log2 fold change” value: 0.207 for the first, -0.288 for the second.

Compared with RRIRFRPPRLPRPRPRPTKMPRP, RRIRFRPPRLPRPRPRPTKWPRP is higher in “shrunken log2 fold change” value: 0.0196 for the first, 0.333 for the second.

Compared with RRIRFRPPRLPRPRPRPTLFPRP, RRIRFRPPRLPRPRPRPTLIPRP is lower in “shrunken log2 fold change” value: 0.243 for the first, -0.19 for the second.

RRIRFRPPRLPRPRPRPTLYPRP and RRIRFRPPRLPRPRPRPTMFPRP are within 0.2 log units of each other in “shrunken log2 fold change” value: -0.189 for the first, -0.322 for the second.

RRIRFRPPRLPRPRPRPTMGPRP and RRIRFRPPRLPRPRPRPTMPPRP are within 0.2 log units of each other in “shrunken log2 fold change” value: 0.0497 for the first, 0.0787 for the second.

Compared with RRIRFRPPRLPRPRPRPTMWPRP, RRIRFRPPRLPRPRPRPTNVPRP is lower in “shrunken log2 fold change” value: 0.0084 for the first, -0.254 for the second.

Compared with RRIRFRPPRLPRPRPRPTPEPRP, RRIRFRPPRLPRPRPRPTQTPRP is lower in “shrunken log2 fold change” value: 0.189 for the first, -0.199 for the second.

Compared with RRIRFRPPRLPRPRPRPTRTPRP, RRIRFRPPRLPRPRPRPTSEPRP is lower in “shrunken log2 fold change” value: 0.326 for the first, 0.0114 for the second.

Going from RRIRFRPPRLPRPRPRPTSGPRP to RRIRFRPPRLPRPRPRPTSLPRP, the “shrunken log2 fold change” value falls from 0.219 to -1.17.

RRIRFRPPRLPRPRPRPTTNPRP and RRIRFRPPRLPRPRPRPTTVPRP are within 0.2 log units of each other in “shrunken log2 fold change” value: -0.2 for the first, -0.132 for the second.

RRIRFRPPRLPRPRPRPTVFPRP and RRIRFRPPRLPRPRPRPTVMPRP are within 0.2 log units of each other in “shrunken log2 fold change” value: -0.0947 for the first, -0.0812 for the second.

Going from RRIRFRPPRLPRPRPRPTVRPRP to RRIRFRPPRLPRPRPRPTWNPRP, the “shrunken log2 fold change” value falls from 0.0843 to -0.166.

RRIRFRPPRLPRPRPRPVAHPRP and RRIRFRPPRLPRPRPRPVAYPRP are within 0.2 log units of each other in “shrunken log2 fold change” value: -0.113 for the first, -0.19 for the second.

RRIRFRPPRLPRPRPRPVDHPRP and RRIRFRPPRLPRPRPRPVDKPRP are within 0.2 log units of each other in “shrunken log2 fold change” value: -0.179 for the first, -0.022 for the second.

RRIRFRPPRLPRPRPRPVFFPRP and RRIRFRPPRLPRPRPRPVGYPRP are within 0.2 log units of each other in “shrunken log2 fold change” value: 0.00921 for the first, -0.129 for the second.

RRIRFRPPRLPRPRPRPVHCPRP and RRIRFRPPRLPRPRPRPVHNPRP are within 0.2 log units of each other in “shrunken log2 fold change” value: -0.0193 for the first, -0.104 for the second.

RRIRFRPPRLPRPRPRPVIEPRP and RRIRFRPPRLPRPRPRPVIPPRP are within 0.2 log units of each other in “shrunken log2 fold change” value: -0.161 for the first, -0.102 for the second.

First: RRIRFRPPRLPRPRPRPVIVPRP
Second: RRIRFRPPRLPRPRPRPVKDPRP
The “shrunken log2 fold change” value of the first is lower: -0.997 for the first, -0.254 for the second.

RRIRFRPPRLPRPRPRPVKSPRP and RRIRFRPPRLPRPRPRPVKWPRP are within 0.2 log units of each other in “shrunken log2 fold change” value: -0.159 for the first, 0.0401 for the second.

Going from RRIRFRPPRLPRPRPRPVMPPRP to RRIRFRPPRLPRPRPRPVMRPRP, the “shrunken log2 fold change” value rises from -0.12 to 0.518.

RRIRFRPPRLPRPRPRPVPEPRP and RRIRFRPPRLPRPRPRPVQIPRP are within 0.2 log units of each other in “shrunken log2 fold change” value: 0.098 for the first, -0.0152 for the second.

Compared with RRIRFRPPRLPRPRPRPVQKPRP, RRIRFRPPRLPRPRPRPVQQPRP is higher in “shrunken log2 fold change” value: 0.00252 for the first, 0.355 for the second.

Going from RRIRFRPPRLPRPRPRPVSNPRP to RRIRFRPPRLPRPRPRPVSVPRP, the “shrunken log2 fold change” value falls from -0.0552 to -0.341.

Compared with RRIRFRPPRLPRPRPRPVSYPRP, RRIRFRPPRLPRPRPRPVTHPRP is lower in “shrunken log2 fold change” value: 0.0168 for the first, -0.303 for the second.

Going from RRIRFRPPRLPRPRPRPVVWPRP to RRIRFRPPRLPRPRPRPVWMPRP, the “shrunken log2 fold change” value falls from 0.408 to -0.119.

Going from RRIRFRPPRLPRPRPRPVYIPRP to RRIRFRPPRLPRPRPRPVYKPRP, the “shrunken log2 fold change” value rises from -1.22 to -0.295.

Going from RRIRFRPPRLPRPRPRPWAHPRP to RRIRFRPPRLPRPRPRPWASPRP, the “shrunken log2 fold change” value falls from 0.195 to -0.0247.

First: RRIRFRPPRLPRPRPRPWCAPRP
Second: RRIRFRPPRLPRPRPRPWCCPRP
The “shrunken log2 fold change” value of the first is higher: 0.185 for the first, -0.654 for the second.

RRIRFRPPRLPRPRPRPWCRPRP and RRIRFRPPRLPRPRPRPWCTPRP are within 0.2 log units of each other in “shrunken log2 fold change” value: -0.172 for the first, -0.288 for the second.

RRIRFRPPRLPRPRPRPWEDPRP and RRIRFRPPRLPRPRPRPWEKPRP are within 0.2 log units of each other in “shrunken log2 fold change” value: 0.0682 for the first, -0.0348 for the second.

RRIRFRPPRLPRPRPRPWHTPRP and RRIRFRPPRLPRPRPRPWKVPRP are within 0.2 log units of each other in “shrunken log2 fold change” value: -0.0673 for the first, -0.00133 for the second.

Compared with RRIRFRPPRLPRPRPRPWMMPRP, RRIRFRPPRLPRPRPRPWMYPRP is higher in “shrunken log2 fold change” value: -0.897 for the first, -0.673 for the second.

RRIRFRPPRLPRPRPRPWQRPRP and RRIRFRPPRLPRPRPRPWSCPRP are within 0.2 log units of each other in “shrunken log2 fold change” value: -0.0586 for the first, -0.175 for the second.

RRIRFRPPRLPRPRPRPWSIPRP and RRIRFRPPRLPRPRPRPWTHPRP are within 0.2 log units of each other in “shrunken log2 fold change” value: -0.0103 for the first, -0.0346 for the second.

For RRIRFRPPRLPRPRPRPWTMPRP, the “shrunken log2 fold change” value was 0.0794.
